For 13 variants, response results are on record in paper PMC3098264, “Crystal Structure of the PAC1R Extracellular Domain Unifies a Consensus Fold for Hormone Recognition by Class B G-Protein Coupled Receptors” (PLoS ONE, 2011).

To fix the notation:
B1: un-labeled PACAP (15–31) [not stated] / MBP-PAC1R (25–140)-His6 [human] (parent complex)
chain 1: KQMAVKKYLAAVLGKRY
chain 2: CIFKKEQAMCLEKIQRANELMGFNDSSPGCPGMWDNITCWKPAHVGEMVLVSCPELFRIFNPDQDMGVVSRNCTEDGWSEPFPHYFDACGFDEYESETGDQDYYYLSVKALYTVGY

In this assay the parent is B1. Put plainly: competitive AlphaScreen; Competing peptide 150uM; residual signal after competition, higher counts = weaker competition by the mutant peptide; read off a plot. On the technique in general: Alpha assays give light when donor and acceptor beads are brought close together.
On to chain 1 KQMAVAKYLAAVLGKRY [chain 1 K6A], for which the response is around 34000 Photon Counts. The value for chain 1 KQMAVKKYLAAALGKRY [chain 1 V12A] was around 6300 Photon Counts; that for chain 1 KQMAAKKYLAAVLGKRY [chain 1 V5A] was around 17000 Photon Counts.

Take chain 1 KQAAVKKYLAAVLGKRY [chain 1 M3A]: the response was around 5100 Photon Counts.

chain 1 KQMAVKKALAAVLGKRY [chain 1 Y8A]: the response was around 1500 Photon Counts.

For chain 1 KQMAVKKYAAAVLGKRY [chain 1 L9A], the response was around 1100 Photon Counts. The figure for chain 1 AQMAVKKYLAAVLGKRY [chain 1 K1A] is around 1800 Photon Counts; for chain 1 KQMAVKKYLAAVLGKRA [chain 1 Y17A] it is around 2700 Photon Counts; for chain 1 KQMAVKKYLAAVLGARY [chain 1 K15A] it is around 3800 Photon Counts. The value for chain 1 KAMAVKKYLAAVLGKRY [chain 1 Q2A] was around 1900 Photon Counts. The figure for chain 1 KQMAVKKYLAAVAGKRY [chain 1 L13A] is around 26000 Photon Counts; for chain 1 KQMAVKKYLAAVLGKAY [chain 1 R16A] it is around 2700 Photon Counts; for chain 1 KQMAVKAYLAAVLGKRY [chain 1 K7A] it is around 2900 Photon Counts.
